Article PMC4634408

Molecular target: thrombin (human alpha-thrombin as purchased) (Homo sapiens) (UniProt P00734+P00734)
Assay: electrochemical impedance spectroscopy
Settings: 5'-HS-C6 thiol spacer; EIS with 2.5 mM [Fe(CN)6]3-/4- in phosphate buffer (PB) pH 7.0 with 0.1 M K2SO4; pH 6.6-7.8 and 15-40 C also tested (best pH 7.0, 35 C); standard incubation …

TTTGGTTGGTGTGGTTGG [ThA thrombin aptamer (15-mer with dT3 spacer)]
binding signal: -28 % dRct/Rct0
